How the values were obtained:
Test in all cases: receptor-Fc IP
VEGFR-1-Fc = target: T1, VEGFR-1-Fc (UniProt P17948 27-338)
T1 construct: domain: first three Ig domains; expressed in Drosophila S2 cells, purified on Protein A sepharose; also called VEGFR-1-Fc fusion protein; not shown: Fc fragment from the Signal-pIgPlus vector
In short: (§1)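 Binding of ligand from sample supernatant measured by pentahistidine-antibody immunoprecipitation. IP mix: PBS with 1.5% BSA, 0.06% Tween 20, 3 μg/ml heparin and 400 ng/ml fusion protein, added 1:2 to sample supernatant.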

VEGFR-2-Fc = target: T2, VEGFR-2-Fc (UniProt P35968 20-322)
T2 construct: domain: first 3 Ig domains; conditioned supernatant of 293T cells; also called VEGFR-2-Fc fusion protein; not shown: Fc fragment of the pIg vector
T2 sequence (P35968 20-322): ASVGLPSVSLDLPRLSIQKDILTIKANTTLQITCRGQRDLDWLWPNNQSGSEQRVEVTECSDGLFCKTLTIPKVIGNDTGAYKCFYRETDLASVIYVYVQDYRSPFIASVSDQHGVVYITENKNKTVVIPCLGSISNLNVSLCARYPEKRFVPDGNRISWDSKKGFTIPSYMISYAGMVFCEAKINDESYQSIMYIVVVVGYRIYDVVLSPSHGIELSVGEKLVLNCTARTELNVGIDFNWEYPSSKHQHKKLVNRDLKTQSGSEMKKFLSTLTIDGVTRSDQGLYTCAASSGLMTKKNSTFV
In short: as §1

VEGFR-3-Fc = target: T3, VEGFR-3-Fc (UniProt P35916 25-328)
T3 construct: domain: first three Ig domains; conditioned supernatant of 293T cells; also called VEGFR-3-Fc fusion protein; not shown: Fc fragment of the pIg vector
T3 sequence (looked up): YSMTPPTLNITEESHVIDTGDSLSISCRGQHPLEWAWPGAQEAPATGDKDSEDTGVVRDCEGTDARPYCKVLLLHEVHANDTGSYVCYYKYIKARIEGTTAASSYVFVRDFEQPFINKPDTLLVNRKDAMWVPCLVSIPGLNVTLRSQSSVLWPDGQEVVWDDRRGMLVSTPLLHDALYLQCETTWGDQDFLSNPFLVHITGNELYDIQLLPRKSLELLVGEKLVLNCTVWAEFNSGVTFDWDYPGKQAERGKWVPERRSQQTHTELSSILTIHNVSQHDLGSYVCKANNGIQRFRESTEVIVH
In short: as §1

T1 sequence (P17948 27-338): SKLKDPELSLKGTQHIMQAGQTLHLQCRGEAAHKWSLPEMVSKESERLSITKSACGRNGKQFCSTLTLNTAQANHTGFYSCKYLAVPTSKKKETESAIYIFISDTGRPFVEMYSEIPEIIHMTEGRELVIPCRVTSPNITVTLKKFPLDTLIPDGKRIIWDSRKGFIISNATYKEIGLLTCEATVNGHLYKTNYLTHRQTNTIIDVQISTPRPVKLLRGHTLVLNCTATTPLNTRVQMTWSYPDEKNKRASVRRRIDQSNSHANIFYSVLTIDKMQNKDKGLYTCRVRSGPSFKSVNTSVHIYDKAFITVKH

B1: 82-5 (ligand)
chain: AHYNTEILKFMDVYQRSYCHPIETLVDIFQEFGVATNTFFKPPCVSVYRCGGCCNDEGLECVPTEESNITMQIMRIKPHQGQHIGEMSFANHTSCRCMSKLD
VEGFR-1-Fc
  binding result: binds
VEGFR-2-Fc
  binding result: no binding
VEGFR-3-Fc
  binding result: no binding

B2: 84-5 (ligand)
chain: AHYNTEILKFMDVYQRSYCHPIETLVDIFQEFGVATNTFFKPSCVPLMRCGGCCNDEGLECVPTEESNITMQIMRIKPHQGQHIGEMSFANHTSCRCMSKLD
VEGFR-1-Fc
  binding result: binds
VEGFR-2-Fc
  binding result: no binding
VEGFR-3-Fc
  binding result: no binding

B3: 12-5 (ligand)
chain: GQNHHEVVKFMDVYQRSYCHPIETLVDIFQEFGVATNTFFKPPCVSVYRCGGCCNDEGLECVPTEESNITMQIMRIKPHQGQHIGEMSFANHTSCRCMSKLDLVF
VEGFR-1-Fc
  binding result: binds
VEGFR-2-Fc
  binding result: no binding
VEGFR-3-Fc
  binding result: no binding

B4: 82-7 (ligand)
chain: AHYNTEILKFMDVYQRSYCHPIETLVDIFQEFGVATNTFFKPPCVSVYRCGGCCNSEGLQCVPTEESNITMQIMRIKPHQGQHIGEMSFANHTSCRCMSKLDLVF
notes: clone entry
VEGFR-1-Fc
  binding result: binds
VEGFR-2-Fc
  binding result: binds
VEGFR-3-Fc
  binding result: binds

B5: 12-1 (ligand)
chain: GQNHHEVVKFMDVYQRSYCHPIETLVDIFQEFGVATNTFFKPPCVSVYRCGGCCNDEGLECVPTEESNITMQIMRIKPHQGQHIGEMSFLQHNKCECRPKKDLVF
VEGFR-1-Fc
  binding result: binds
VEGFR-2-Fc
  binding result: binds
VEGFR-3-Fc
  binding result: binds

B6: 74-10 (ligand)
chain: GQNHHEVVKSIDNEWRKTQCMPREVCIDVGKEFGVATNTFFKPSCVPLMRCGGCCNDEGLECMNTSTSYLSKTLFEITVPLSQGPKPVTISFLQHNKCECRPKKD
VEGFR-1-Fc
  binding result: no binding
VEGFR-2-Fc
  binding result: binds
VEGFR-3-Fc
  binding result: no binding

B7: 74-12 (ligand)
chain: GQNHHEVVKSIDNEWRKTQCMPREVCIDVGKEFGVATNTFFKPSCVPLMRCGGCCNSEGLQCMNTSTSYLSKTLFEITVPLSQGPKPVTISFLQHNKCECRPKKD
VEGFR-1-Fc
  binding result: no binding
VEGFR-2-Fc
  binding result: binds
VEGFR-3-Fc
  binding result: no binding

B8: 82-15 (ligand)
chain: AHYNTEILKFMDVYQRSYCHPIETLVDIFQEFGVATNTFFKPPCVSVYRCGGCCNSEGLQCVPTEESNITMQIMRITVPLSQGPKPVTISFANHTSCRCMSKLD
VEGFR-1-Fc
  binding result: no binding
VEGFR-2-Fc
  binding result: binds
VEGFR-3-Fc
  binding result: binds

B9: 84-1 (ligand)
chain: AHYNTEILKFMDVYQRSYCHPIETLVDIFQEFGVATNTFFKPSCVPLMRCGGCCNDEGLECVPTEESNITMQIMRIKPHQGQHIGEMSFLQHNKCECRPKKD
VEGFR-1-Fc
  binding result: binds
VEGFR-2-Fc
  binding result: no binding
VEGFR-3-Fc
  binding result: no binding

B10: 84-3 (ligand)
chain: AHYNTEILKFMDVYQRSYCHPIETLVDIFQEFGVATNTFFKPSCVPLMRCGGCCNSEGLQCVPTEESNITMQIMRIKPHQGQHIGEMSFLQHNKCECRPKKD
VEGFR-1-Fc
  binding result: binds
VEGFR-2-Fc
  binding result: binds
VEGFR-3-Fc
  binding result: no binding

B11: 74-8 (ligand)
chain: GQNHHEVVKSIDNEWRKTQCMPREVCIDVGKEFGVATNTFFKPSCVPLMRCGGCCNSEGLQCMNTSTSYLSKTLFEIKPHQGQHIGEMSFANHTSCRCMSKLD
VEGFR-1-Fc
  binding result: no binding
VEGFR-2-Fc
  binding result: binds
VEGFR-3-Fc
  binding result: no binding

B12: 82-9 (ligand)
chain: AHYNTEILKFMDVYQRSYCHPIETLVDIFQEFGVATNTFFKPPCVSVYRCGGCCNDEGLECVPTEESNITMQIMRITVPLSQGPKPVTISFLQHNKCECRPKKDL
notes: clone entry
VEGFR-1-Fc
  binding result: binds
VEGFR-2-Fc
  binding result: binds
VEGFR-3-Fc
  binding result: binds

B13: 84-11 (ligand)
chain: AHYNTEILKFMDVYQRSYCHPIETLVDIFQEFGVATNTFFKPSCVPLMRCGGCCNSEGLQCVPTEESNITMQIMRITVPLSQGPKPVTISFLQHNKCECRPKKDL
notes: clone entry
VEGFR-1-Fc
  binding result: binds
VEGFR-2-Fc
  binding result: binds
VEGFR-3-Fc
  binding result: binds

B14: 82-11 (ligand)
chain: AHYNTEILKFMDVYQRSYCHPIETLVDIFQEFGVATNTFFKPPCVSVYRCGGCCNSEGLQCVPTEESNITMQIMRITVPLSQGPKPVTISFLQHNKCECRPKKDL
notes: clone entry
VEGFR-1-Fc
  binding result: binds
VEGFR-2-Fc
  binding result: binds
VEGFR-3-Fc
  binding result: binds

B15: 82-13 (ligand)
chain: AHYNTEILKFMDVYQRSYCHPIETLVDIFQEFGVATNTFFKPPCVSVYRCGGCCNDEGLECVPTEESNITMQIMRITVPLSQGPKPVTISFANHTSCRCMSKLDL
notes: clone entry
VEGFR-1-Fc
  binding result: binds
VEGFR-2-Fc
  binding result: no binding
VEGFR-3-Fc
  binding result: binds

B16: 84-9 (ligand)
chain: AHYNTEILKFMDVYQRSYCHPIETLVDIFQEFGVATNTFFKPSCVPLMRCGGCCNDEGLECVPTEESNITMQIMRITVPLSQGPKPVTISFLQHNKCECRPKKDL
notes: clone entry
VEGFR-1-Fc
  binding result: binds
VEGFR-2-Fc
  binding result: binds
VEGFR-3-Fc
  binding result: binds

B17: 14-9 (ligand)
chain: GQNHHEVVKFMDVYQRSYCHPIETLVDIFQEFGVATNTFFKPSCVPLMRCGGCCNDEGLECVPTEESNITMQIMRITVPLSQGPKPVTISFLQHNKCECRPKKDL
notes: clone entry
VEGFR-1-Fc
  binding result: binds
VEGFR-2-Fc
  binding result: binds
VEGFR-3-Fc
  binding result: binds

B18: 72-2 (ligand)
chain: GQNHHEVVKSIDNEWRKTQCMPREVCIDVGKEFGVATNTFFKPPCVSVYRCGGCCNDEGLECMNTSTSYLSKTLFEIKPHQGQHIGEMSFLQHNKCECRPKKD
VEGFR-1-Fc
  binding result: no binding
VEGFR-2-Fc
  binding result: binds
VEGFR-3-Fc
  binding result: binds

B19: 82-14 (ligand)
chain: AHYNTEILKFMDVYQRSYCHPIETLVDIFQEFGVATNTFFKPPCVSVYRCGGCCNDEGLECMNTSTSYLSKTLFEITVPLSQGPKPVTISFANHTSCRCMSKLD
VEGFR-1-Fc
  binding result: no binding
VEGFR-2-Fc
  binding result: no binding
VEGFR-3-Fc
  binding result: binds

B20: 82-16 (ligand)
chain: AHYNTEILKFMDVYQRSYCHPIETLVDIFQEFGVATNTFFKPPCVSVYRCGGCCNSEGLQCMNTSTSYLSKTLFEITVPLSQGPKPVTISFANHTSCRCMSKLD
VEGFR-1-Fc
  binding result: no binding
VEGFR-2-Fc
  binding result: no binding
VEGFR-3-Fc
  binding result: binds

B21: 22-16 (ligand)
chain: AHYNTEILKSIDNEWRKTQCMPREVCIDVGKEFGVATNTFFKPPCVSVYRCGGCCNSEGLQCMNTSTSYLSKTLFEITVPLSQGPKPVTISFANHTSCRCMSKLDLVFEQKLISEEDLNSAVDHHHHHH
VEGFR-1-Fc
  binding result: no binding
VEGFR-2-Fc
  binding result: binds
VEGFR-3-Fc
  binding result: binds

Source: patent US20080058263A1 (published 2008)
